{"source": "patent US20030176373", "about": "“Agents that modulate DNA-PK activity and methods of use thereof” (published 2003)", "key": {"[1]": {"molecular_target": "T1, Ku70/Ku80 heterodimer (Ku antigen) (Mus musculus, UniProt P23475;P27641 P23475:2-608,P27641:1-732)", "T1 sequence (P23475 2-608, chain 1 of 2)": "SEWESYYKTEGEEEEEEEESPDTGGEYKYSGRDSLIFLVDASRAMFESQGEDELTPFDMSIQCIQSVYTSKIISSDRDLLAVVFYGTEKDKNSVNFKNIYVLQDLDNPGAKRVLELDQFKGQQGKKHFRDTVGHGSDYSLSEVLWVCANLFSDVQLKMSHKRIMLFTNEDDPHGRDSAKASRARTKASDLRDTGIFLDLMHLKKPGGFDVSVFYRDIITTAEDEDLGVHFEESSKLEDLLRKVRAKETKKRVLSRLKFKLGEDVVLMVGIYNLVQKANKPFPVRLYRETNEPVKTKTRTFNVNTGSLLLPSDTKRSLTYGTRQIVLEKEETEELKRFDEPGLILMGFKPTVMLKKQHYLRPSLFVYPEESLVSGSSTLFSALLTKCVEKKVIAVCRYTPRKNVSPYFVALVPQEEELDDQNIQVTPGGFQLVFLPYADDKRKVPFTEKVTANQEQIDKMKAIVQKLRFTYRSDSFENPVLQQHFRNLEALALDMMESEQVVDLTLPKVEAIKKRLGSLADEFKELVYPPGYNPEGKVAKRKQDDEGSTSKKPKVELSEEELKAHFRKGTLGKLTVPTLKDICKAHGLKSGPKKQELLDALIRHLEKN", "T1 sequence (P27641 whole entry, chain 2 of 2)": "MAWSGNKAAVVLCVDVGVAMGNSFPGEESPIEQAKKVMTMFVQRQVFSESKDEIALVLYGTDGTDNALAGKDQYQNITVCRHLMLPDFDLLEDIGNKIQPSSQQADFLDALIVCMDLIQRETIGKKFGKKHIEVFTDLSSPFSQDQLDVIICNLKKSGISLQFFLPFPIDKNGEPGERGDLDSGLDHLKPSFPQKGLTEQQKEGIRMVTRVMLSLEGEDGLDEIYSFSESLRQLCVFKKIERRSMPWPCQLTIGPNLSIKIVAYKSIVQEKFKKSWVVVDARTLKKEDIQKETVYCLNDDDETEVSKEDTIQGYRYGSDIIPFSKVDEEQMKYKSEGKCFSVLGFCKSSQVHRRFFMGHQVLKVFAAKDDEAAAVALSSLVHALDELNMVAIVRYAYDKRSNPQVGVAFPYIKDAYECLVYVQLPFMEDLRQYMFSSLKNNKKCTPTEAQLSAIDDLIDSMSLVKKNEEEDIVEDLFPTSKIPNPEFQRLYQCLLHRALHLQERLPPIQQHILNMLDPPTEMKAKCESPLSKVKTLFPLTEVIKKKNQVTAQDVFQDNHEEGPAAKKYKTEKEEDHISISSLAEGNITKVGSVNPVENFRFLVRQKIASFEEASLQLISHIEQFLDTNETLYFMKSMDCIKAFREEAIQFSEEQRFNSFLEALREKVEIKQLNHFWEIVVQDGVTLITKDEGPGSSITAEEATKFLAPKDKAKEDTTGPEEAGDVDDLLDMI", "assay": "competition; no significant competition at 0.1-0.4 ug", "description": "(§1) To verify the binding specificity of the Ku protein to ISS-ODN, inhibition studies were performed using cold ss or ds ISS or mutated (M, i.e., control) ODNs. Ten μg of fraction 20 from the affinity column were incubated with [³²P]-labeled ISS-ODN in the presence of unlabeled (0.1, 0.2 and 0.4 μg, respectively) ss-ISS-ODN (lanes 3-5), ds-ISS-ODN (lanes 7-9), ss-M-ODN (lanes 11-13) or ds-M-ODN (lanes 15-17)."}, "[2]": {"molecular_target": "T1, Ku70/Ku80 heterodimer (Ku antigen)", "assay": "competition; unlabeled 0.1-0.4 ug displaces labeled ds-ISS-ODN", "description": "as §1"}}}
{"binder": "TGACTGTGAACCTTAGAGATGA (ssDNA)", "note": "[ss-M-ODN]", "values": [{"measurement": "binding result", "setting": "[1]", "result": "no binding"}]}
{"binder": "TGACTGTGAACGTTCGAGATGA (ssDNA)", "note": "[ss-ISS-ODN]", "values": [{"measurement": "binding result", "setting": "[2]", "result": "binds"}]}
